Measurements as given in IntAct's records for PubMed 21858081.

Target: tppc9_human TRAPPC9 (UniProt Q96Q05)
Sequence (Q96Q05 whole entry): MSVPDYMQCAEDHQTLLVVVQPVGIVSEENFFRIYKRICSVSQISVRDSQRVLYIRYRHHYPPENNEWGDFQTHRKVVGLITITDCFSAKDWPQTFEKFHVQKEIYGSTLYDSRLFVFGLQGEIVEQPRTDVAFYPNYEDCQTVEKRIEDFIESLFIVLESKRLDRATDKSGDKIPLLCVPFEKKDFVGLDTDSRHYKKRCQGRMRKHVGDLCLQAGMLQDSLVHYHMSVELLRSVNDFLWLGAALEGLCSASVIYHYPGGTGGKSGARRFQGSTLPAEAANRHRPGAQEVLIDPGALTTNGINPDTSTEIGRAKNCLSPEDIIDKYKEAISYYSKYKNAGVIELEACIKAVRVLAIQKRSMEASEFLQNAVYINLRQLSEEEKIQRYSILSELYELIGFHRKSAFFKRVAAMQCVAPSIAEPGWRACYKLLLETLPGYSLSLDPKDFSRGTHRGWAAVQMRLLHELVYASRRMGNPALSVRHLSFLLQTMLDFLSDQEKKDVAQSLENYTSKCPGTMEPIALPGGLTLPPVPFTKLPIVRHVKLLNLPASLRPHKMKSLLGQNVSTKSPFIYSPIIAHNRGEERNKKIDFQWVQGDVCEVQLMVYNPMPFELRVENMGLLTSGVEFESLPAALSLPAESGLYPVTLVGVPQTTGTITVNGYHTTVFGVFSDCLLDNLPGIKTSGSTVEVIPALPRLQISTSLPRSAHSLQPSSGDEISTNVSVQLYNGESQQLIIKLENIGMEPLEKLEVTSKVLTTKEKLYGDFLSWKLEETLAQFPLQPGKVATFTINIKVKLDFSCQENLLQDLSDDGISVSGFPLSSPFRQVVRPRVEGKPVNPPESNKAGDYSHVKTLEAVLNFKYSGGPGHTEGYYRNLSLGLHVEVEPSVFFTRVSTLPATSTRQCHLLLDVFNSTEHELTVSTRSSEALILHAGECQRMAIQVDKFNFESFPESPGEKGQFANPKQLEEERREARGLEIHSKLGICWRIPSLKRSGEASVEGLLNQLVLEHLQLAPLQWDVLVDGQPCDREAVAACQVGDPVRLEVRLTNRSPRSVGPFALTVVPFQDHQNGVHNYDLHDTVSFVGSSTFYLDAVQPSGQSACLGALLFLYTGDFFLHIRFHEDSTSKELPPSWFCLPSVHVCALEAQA

Trafficking protein particle complex subunit 2 (Mus musculus) (from UniProt Q9CQP2) D47Y
effect of a mutation on the interaction: decreasing interaction strength
